From publication PMC10693867 (Journal for Immunotherapy of Cancer, 2023) come the findings set out here.

The target of the assay is CD1d(endogenous lipid)-β2M complex, as crystallized with VHH1D17 (Homo sapiens, UniProt P15813;P61769).

B1: VHH1D5 (VHH)
VHH: EVQLVESGGGLVQAGGSLRLSCAASGSSFSSYTMGWFRQAPGKEREIVAGIRWSDESPIYADSVKGRFTISRDNAKNTLYLQMNSLKPEDTAVYYCAARLVPPGIPIPRTSESMRYWGKGTLVTVSS
On to B1, for which the binding result is given as “binds”.
